For 2 proteins, Km, kcat and kcat/Km results are on record in patent publication US6593454B2, “Methods for identifying inhibitors of methionine aminopeptidases” (Saint Louis University, priority 1999, dated 2003).

Substrate in series [1]: CSCC[C@H](N)C(=O)NCC(=O)N1CCC[C@H]1C(=O)Nc1ccc([N+](=O)[O-])cc1
Nature of the series: AccQ-Tag assay, kinetic parameters of the substrate peptide with type 1 MAP. Type of series: biochemical. The note with it: other: yeast type 1 MAP; substrate Met-Gly-Pro-p-nitroanilide; mean ± SD. The source says: (§1) To determine whether Met-Gly-Pro-p-nitroanilide is a substrate for MAP, and whether the presence of dipeptidyl peptidase could affect the activity of MAP, an AccQ-Tag assay was used as described in Zuo et al., supra.

Substrate in series [2]: CSCC[C@H](N)C(=O)NCC(=O)N1CCC[C@H]1C(=O)Nc1ccc([N+](=O)[O-])cc1
Nature of the series: AccQ-Tag assay, kinetic parameters of the substrate peptide with type 2 MAP. Type of series: biochemical. The note with it: other: human type 2 MAP; substrate Met-Gly-Pro-p-nitroanilide; mean ± SD.
Source text: as §1

B1: yeast type 1 MAP (Saccharomyces cerevisiae S288C) (protein)
chain: MSTATTTVTTSDQASHPTKIYCSGLQCGRETSSQMKCPVCLKQGIVSIFCDTSCYENNYKAHKALHNAKDGLEGAYDPFPKFKYSGKVKASYPLTPRRYVPEDIPKPDWAANGLPVSEQRNDRLNNIPIYKKDQIKKIRKACMLGREVLDIAAAHVRPGITTDELDEIVHNETIKRGAYPSPLNYYNFPKSLCTSVNEVICHGVPDKTVLKEGDIVNLDVSLYYQGYHADLNETYYVGENISKEALNTTETSRECLKLAIKMCKPGTTFQELGDHIEKHATENKCSVVRTYCGHGVGEFFHCSPNIPHYAKNRTPGVMKPGMVFTIEPMINEGTWKDMTWPDDWTSTTQDGKLSAQFEHTLLVTEHGVEILTARNKKSPGGPRQRIK
What is called Km is the concentration of substrate that gives half-maximal velocity. One may read the kcat as the maximal rate divided by the concentration of active sites. One may read the kcat/Km as the turnover number divided by the Michaelis constant. In the case of B1, in series [1], the Km was 4 ± 0.7 mM, the kcat was determined as 14.4 ± 0.417 s⁻¹ and the catalytic efficiency (kcat/Km) came to 3600 ± 583 M⁻¹ s⁻¹.

B2: human type 2 MAP (Homo sapiens) (protein)
chain: MAGVEEVAASGSHLNGDLDPDDREEGAASTAEEAAKKKRRKKKKSKGPSAAGEQEPDKESGASVDEVARQLERSALEDKERDEDDEDGDGDGDGATGKKKKKKKKKRGPKVQTDPPSVPICDLYPNGVFPKGQECEYPPTQDGRTAAWRTTSEEKKALDQASEEIWNDFREAAEAHRQVRKYVMSWIKPGMTMIEICEKLEDCSRKLIKENGLNAGLAFPTGCSLNNCAAHYTPNAGDTTVLQYDDICKIDFGTHISGRIIDCAFTVTFNPKYDTLLKAVKDATNTGIKCAGIDVRLCDVGEAIQEVMESYEVEIDGKTYQVKPIRNLNGHSIGQYRIHAGKTVPIVKGGEATRMEEGEVYAIETFGSTGKGVVHDDMECSHYMKNFDVGHVPIRLPRTKHLLNVINENFGTLAFCRRWLDRLGESKYLMALKNLCDLGIVDPYPPLCDIKGSYTAQFEHTILLRPTCKEVVSRGDDY
B2: in series [2], the Km stood at 3 ± 0.5 mM, the kcat came to 8.63 ± 0.583 s⁻¹ and the kcat/Km is 2870 ± 433 M⁻¹ s⁻¹.
